Data as given in patent US20210009686A1.

What was measured:
[1] = target: claudin 18.1 (CLDN18.1) (human) (UniProt P56856); assay: in-cell ELISA on HEK293-CLDN18.1 cells
[2] = target: claudin 18.2 (CLDN18.2) (human); assay: in-cell ELISA on HEK293-CLDN18.2 cells

claudin 18.1 (CLDN18.1) (human), sequence (P56856 whole entry): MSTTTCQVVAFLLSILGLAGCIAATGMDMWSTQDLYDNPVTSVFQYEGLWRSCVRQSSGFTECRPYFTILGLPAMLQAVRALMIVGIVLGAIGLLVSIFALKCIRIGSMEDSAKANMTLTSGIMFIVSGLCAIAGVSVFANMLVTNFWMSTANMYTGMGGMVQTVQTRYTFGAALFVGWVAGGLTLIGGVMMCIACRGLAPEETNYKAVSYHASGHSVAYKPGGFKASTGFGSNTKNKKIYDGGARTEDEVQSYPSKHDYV

OD450/µg IgG [1]: 1.54 OD450/µg IgG | OD450/µg IgG [2]: 3.23 OD450/µg IgG
Substance: mouse IgG (control) (antibody)
